Consider 1 molecule from patent EP4613780A1 (Adlai Nortye Biopharma Co., Ltd., dated 2025).

For assay [1], the target named is PD-L1 on TCR activator PD-L1-CHO cells (BPS bioscience) (UniProt Q9NZQ7 19-290, limits assumed). As to the kind of experiment: cell-based or functional assay.
Assay [2] deals with T1, human CD28 protein (Acro, CD8-H525a) (human, UniProt P10747 19-152).
T1 construct: coated on the ELISA plate; also called human CD28 antigen
As to the kind of experiment: ELISA, coated human CD28. (An ELISA detects its analyte on a solid surface through an enzyme-linked reagent.)

Assay [3] has as its target T2, human CTLA4 protein (Acro, CT4-H52H9) (human, UniProt P16410 36-161).
T2 construct: coated on the ELISA plate; also called human CTLA4 antigen
T2 sequence (looked up): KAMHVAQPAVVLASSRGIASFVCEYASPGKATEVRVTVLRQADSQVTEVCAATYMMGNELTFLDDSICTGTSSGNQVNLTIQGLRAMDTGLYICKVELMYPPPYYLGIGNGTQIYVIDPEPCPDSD
As to the kind of experiment: ELISA, coated human CTLA4.

For assay [4], the target named is T3, human PD-L1 protein (Acro, PD1-H5258) (human, UniProt Q9NZQ7 19-238).
T3 construct: coated on the ELISA plate; also called human PDL1 antigen
T3 sequence (Q9NZQ7 19-238 limits assumed): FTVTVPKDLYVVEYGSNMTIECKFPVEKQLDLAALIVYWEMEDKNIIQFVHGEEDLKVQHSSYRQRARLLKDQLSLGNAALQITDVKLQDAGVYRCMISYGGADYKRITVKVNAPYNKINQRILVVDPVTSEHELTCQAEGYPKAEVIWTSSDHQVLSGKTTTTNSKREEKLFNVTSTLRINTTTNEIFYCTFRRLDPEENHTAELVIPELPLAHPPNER
As to the kind of experiment: ELISA, coated human PD-L1.

Assay [5] concerns the target hPD-L1 (Octet R8 analyte) (human, UniProt Q9NZQ7 19-238, limits assumed). In words: BLI Octet R8, Protein A probe. (BLI is a label-free optical method that tracks binding on a fibre tip over time.)
Assay [6] addresses T4, hCTLA-4 (Octet R8 analyte) (human, UniProt P16410 36-161, limits assumed).
T4 sequence (looked up): T2 sequence (looked up)
In words: BLI Octet R8, Protein A probe.

For the next assay, the target named is hCD28 (Octet R8 analyte) (human, UniProt P10747 19-152, limits assumed). In words: BLI Octet R8, Protein A probe.
Chain of hCD28 (Octet R8 analyte) (P10747 19-152 limits assumed): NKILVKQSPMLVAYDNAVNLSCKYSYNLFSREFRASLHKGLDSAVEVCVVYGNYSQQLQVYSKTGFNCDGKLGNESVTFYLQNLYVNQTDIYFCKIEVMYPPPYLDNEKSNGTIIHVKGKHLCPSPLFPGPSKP

Chain of PD-L1 on TCR activator PD-L1-CHO cells (BPS bioscience) (Q9NZQ7 19-290 limits assumed): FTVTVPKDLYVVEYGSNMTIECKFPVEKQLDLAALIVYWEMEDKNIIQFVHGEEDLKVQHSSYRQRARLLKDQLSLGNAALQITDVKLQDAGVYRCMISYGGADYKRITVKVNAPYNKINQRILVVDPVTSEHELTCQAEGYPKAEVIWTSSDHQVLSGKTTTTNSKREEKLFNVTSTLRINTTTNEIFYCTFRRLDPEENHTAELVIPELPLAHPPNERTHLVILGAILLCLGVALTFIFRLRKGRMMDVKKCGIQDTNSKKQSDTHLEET
T1 sequence (P10747 19-152 limits assumed): as the sequence (P10747 19-152 limits assumed) above
Chain of hPD-L1 (Octet R8 analyte) (Q9NZQ7 19-238 limits assumed): as the sequence (Q9NZQ7 19-238 limits assumed) above

B1: antibody Abs-16 (sugemalimab) (antibody, human IgG4 S228P, lambda, V domains shown)
VH: EVQLLESGGGLVQPGGSLRLSCAASGFTFSSYAMSWVRQAPGKGLEWVSGISGSGGFTYYADSVKGRFTISRDNSKNTLYLQMNSLRAEDTAVYYCAKPPRGYNYGPFDYWGQGTLVTVSS
VL: SYVLTQPPSVSVAPGQTARITCGGNNIGSKSVHWYQQKPGQAPVLVVYDDSDRPSGIPERFSGSNSGNTATLTISRVEAGDEADYYCQVWDSSSDHVVFGGGTKLTVLG
notes: anti-PD-L1 control antibody; also called Sugemalimab (CS1001)
Broadly, the EC50 is the concentration at which the effect is half-maximal. The low end stands for greater potency, the high end for weaker potency. By Kd is commonly meant a measure of binding affinity in units of concentration. The low end stands for higher affinity, the high end for lower affinity. B1: the “Jurkat-NFAT-Luc/CHO-PDL1 EC50” value in assay [1] was determined as 0.09 nM. The “Top induction relative to 10nM sugemalimab” value in assay [1] worked out at 100%. The binding result is reported as “no binding” in assay [2], “no binding” in assay [3], “no binding (tested: 50nM)” in assay [6] and “no binding (tested: 50nM)” with hCD28 (Octet R8 analyte). For the same molecule, it took 0.0767 nM to reach a half-maximal effect in assay [4] (EC50). Besides, binding in assay [5] was put at a Kd of 0.581 nM.
